Assay [1] addresses 6P stabilized SARS-CoV-2 S-ectodomain (prefusion-stabilized ancestral Wuhan spike ectodomain trimer) (SARS-CoV-2, ancestral Wuhan, stabilised). As to the kind of experiment: cryo-EM structure.
In assay [2] the target is SARS-CoV-2 spike ectodomain, trimeric recombinant (SARS-CoV-2, ancestral (Wuhan) assumed, UniProt P0DTC2). As to the kind of experiment: cell-based or functional assay.

B1: nanobody 7F (VHH)
VHH: EVQLVESGGGLVEAGGSLRLSCVASGLTFSDYTMAWFRQVPGQEREFVSHIGWGGSETYYADSVKGRFTISRDNAKNAMYLQMNELKPDDTAVYYCAADRGSSFYYVRESEYTFWGQGTQVTVSS
Regarding B1, the “stoichiometry N” value in assay [1] was 6 7F molecules per two spike trimers. In assay [2], the “IC50 of neutralisation of VSV pseudotyped with SARS-CoV-2 spike on VeroE6 cells” value was 33.4 nM.

Source of the values: paper doi:10.1101/2024.06.19.598823 (bioRxiv, 2024).
